Laboratory results taken from publication PMC3910116, “Super Spy variants implicate flexibility in chaperone action” (eLife, 2014).

Tests used:
Conditions in all cases: both partners purified
Spy F115L [1] = biological target: T1, Spy F115L (E. coli, UniProt P77754 24-161, F115L); assay: BLI; biotinylated Im7 L53A I54A immobilised on streptavidin sensors (Octet RED); Spy variants at 2, 1, 0.5, 0.25 and 0.125 µM; 25°C; 40 mM HEPES, 150 mM NaCl, pH 7.5; 1:1 binding model, KD = koff/kon; apparent
T1 construct: N-terminal serine from the Sumo fusion construct; the footnote says it of Spy purification in general; Spy, E. coli, mature protein; numbers count on: the mature protein; Variant of m1 found by genetic selection, remade by site-directed mutagenesis; also called super-Spy variant; source: purified; not shown: SUMO, N-terminal, cleaved (from the N-terminal serine said of Spy purification in general)
T1 sequence: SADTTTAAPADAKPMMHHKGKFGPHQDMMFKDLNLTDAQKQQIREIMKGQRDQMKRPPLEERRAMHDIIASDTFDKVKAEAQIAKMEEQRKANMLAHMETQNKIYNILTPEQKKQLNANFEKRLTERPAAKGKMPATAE

Spy F115I [2] = biological target: T2, Spy F115I (E. coli, UniProt P77754 24-161, F115I); assay: as above
T2 construct: N-terminal serine from the Sumo fusion construct; the footnote says it of Spy purification in general; Spy, E. coli, mature protein; numbers count on: the mature protein; Variant of m1 found by genetic selection, remade by site-directed mutagenesis; also called super-Spy variant; source: purified; not shown: SUMO, N-terminal, cleaved (from the N-terminal serine said of Spy purification in general)
T2 sequence: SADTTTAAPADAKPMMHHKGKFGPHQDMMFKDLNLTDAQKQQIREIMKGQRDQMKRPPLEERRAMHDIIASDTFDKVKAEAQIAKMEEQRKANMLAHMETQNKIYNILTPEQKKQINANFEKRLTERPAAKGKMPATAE

Spy Q100L [3] = biological target: T3, Spy Q100L (E. coli, UniProt P77754 24-161, Q100L); assay: as above
T3 construct: N-terminal serine from the Sumo fusion construct; the footnote says it of Spy purification in general; Spy, E. coli, mature protein; numbers count on: the mature protein; Variant of m1 found by genetic selection, remade by site-directed mutagenesis; also called super-Spy variant; source: purified; not shown: SUMO, N-terminal, cleaved (from the N-terminal serine said of Spy purification in general)
T3 sequence: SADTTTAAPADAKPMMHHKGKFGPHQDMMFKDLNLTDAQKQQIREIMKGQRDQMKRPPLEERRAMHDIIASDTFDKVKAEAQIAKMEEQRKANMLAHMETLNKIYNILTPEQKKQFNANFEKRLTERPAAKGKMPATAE

Spy Q49L [4] = biological target: T4, Spy Q49L (E. coli, UniProt P77754 24-161, Q49L); assay: as above
T4 construct: N-terminal serine from the Sumo fusion construct; the footnote says it of Spy purification in general; Spy, E. coli, mature protein; numbers count on: the mature protein; Variant of m1 found by genetic selection, remade by site-directed mutagenesis; also called super-Spy variant; source: purified; not shown: SUMO, N-terminal, cleaved (from the N-terminal serine said of Spy purification in general)
T4 sequence: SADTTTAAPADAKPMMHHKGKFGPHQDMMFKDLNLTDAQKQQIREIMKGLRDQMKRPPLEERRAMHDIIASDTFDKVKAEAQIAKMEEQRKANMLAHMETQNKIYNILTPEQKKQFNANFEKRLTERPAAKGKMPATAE

Spy H96L [5] = biological target: T5, Spy H96L (E. coli, UniProt P77754 24-161, H96L); assay: as above
T5 construct: N-terminal serine from the Sumo fusion construct; the footnote says it of Spy purification in general; Spy, E. coli, mature protein; numbers count on: the mature protein; Variant of m1 found by genetic selection, remade by site-directed mutagenesis; also called super-Spy variant; source: purified; not shown: SUMO, N-terminal, cleaved (from the N-terminal serine said of Spy purification in general)
T5 sequence: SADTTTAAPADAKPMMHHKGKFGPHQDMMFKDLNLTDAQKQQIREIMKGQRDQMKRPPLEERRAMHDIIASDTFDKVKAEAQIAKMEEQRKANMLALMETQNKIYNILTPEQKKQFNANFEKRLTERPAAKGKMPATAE

Spy Q25R [6] = biological target: T6, Spy Q25R (E. coli, UniProt P77754 24-161, Q25R); assay: as above
T6 construct: N-terminal serine from the Sumo fusion construct; the footnote says it of Spy purification in general; Spy, E. coli, mature protein; numbers count on: the mature protein; Variant of m1 found by genetic selection, remade by site-directed mutagenesis; also called super-Spy variant; source: purified; not shown: SUMO, N-terminal, cleaved (from the N-terminal serine said of Spy purification in general)
T6 sequence: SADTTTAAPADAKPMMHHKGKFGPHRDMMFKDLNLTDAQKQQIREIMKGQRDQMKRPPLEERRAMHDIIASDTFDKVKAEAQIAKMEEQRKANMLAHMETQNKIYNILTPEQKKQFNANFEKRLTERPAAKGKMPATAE

Spy L32P [7] = biological target: T7, Spy L32P (E. coli, UniProt P77754 24-161, L32P); assay: as above
T7 construct: N-terminal serine from the Sumo fusion construct; the footnote says it of Spy purification in general; Spy, E. coli, mature protein; numbers count on: the mature protein; Variant of m1 found by genetic selection, remade by site-directed mutagenesis; also called super-Spy variant; source: purified; not shown: SUMO, N-terminal, cleaved (from the N-terminal serine said of Spy purification in general)
T7 sequence: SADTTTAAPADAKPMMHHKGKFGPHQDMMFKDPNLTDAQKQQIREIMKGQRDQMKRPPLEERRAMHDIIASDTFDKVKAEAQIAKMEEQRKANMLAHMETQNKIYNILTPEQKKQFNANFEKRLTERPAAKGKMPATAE

Spy (wild type) [8] = biological target: T8, Spy (wild type) (E. coli, UniProt P77754 24-161); assay: as above
T8 construct: N-terminal serine introduced from the Sumo fusion construct used for purification; numbers count on: the mature protein; construct as in Quan et al., 2011; also called WT; wild-type Spy; source: purified from a Sumo fusion construct (Quan et al., 2011); not shown: SUMO, N-terminal, cleaved (from the N-terminal serine left on the protein)
T8 sequence: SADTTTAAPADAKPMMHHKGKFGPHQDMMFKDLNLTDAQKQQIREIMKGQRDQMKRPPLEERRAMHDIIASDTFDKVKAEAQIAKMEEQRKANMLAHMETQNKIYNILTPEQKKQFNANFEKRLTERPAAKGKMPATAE

Spy (wild type) [9] = biological target: T8, Spy (wild type); assay: ITC; Spy with full length Im7 L53A I54A or purified Im7 peptides; conditions and who was titrated not told
Spy F115L [10] = biological target: T1, Spy F115L; assay: HDX-MS; top-down ECD-FTICR-MS; 25 µM Spy (dimer) and 100 µM Im7 peptide (1:4), 10 mM ammonium acetate, 80% D2O, labelling time 10 s
Spy F115I [11] = biological target: T2, Spy F115I; assay: as above
Spy Q100L [12] = biological target: T3, Spy Q100L; assay: as above
Spy Q49L [13] = biological target: T4, Spy Q49L; assay: as above
Spy H96L [14] = biological target: T5, Spy H96L; assay: as above
Spy Q25R [15] = biological target: T6, Spy Q25R; assay: as above
Spy L32P [16] = biological target: T7, Spy L32P; assay: as above
[17] = biological target: T9, N-terminal strep-tagged Spy (E. coli, UniProt P77754 24-161); assay: pull-down; tryptic fragments of Im7 L53A I54A mixed with N-terminal strep-tagged Spy, strep-tactin sepharose column, eluted with 2.5 mM desthiobiotin, fragments identified by LC/MS
T9 construct: Spy, E. coli; Probably the mature protein behind the tag; not shown: Strep tag, N-terminal, kept
T9 sequence (looked up): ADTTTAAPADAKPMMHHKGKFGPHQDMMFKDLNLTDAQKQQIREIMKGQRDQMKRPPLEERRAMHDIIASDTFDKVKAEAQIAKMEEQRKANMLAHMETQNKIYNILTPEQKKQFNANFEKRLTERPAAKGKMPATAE

B1: Biotinylated Im7 L53A I54A (natural protein)
chain: SMELKNSISDYTEAEFVQLLKEIEKENVAATDDVLDVLLEHFVKITEHPDGTDAAYYPSDNRDDSPEGIVKEIKEWRAANGKPGFKQG
modifications: biotin (EZ-link NHS-biotin at 1:1 molar ratio; site not stated)
notes: N-terminal serine from the Sumo fusion construct; the footnote says it of Im7 purification in general; immunity protein 7 (Im7), colicin E7 immunity protein; Same protein as m10 with biotin; held on streptavidin sensors; also called biotin-conjugated Im7 L53A I54A; immunity protein 7 L53A I54A; source: purified from a Sumo fusion construct (Quan et al., 2011), biotinylated with EZ-link …
For B1, which Kd (Spy F115L [1]) is on record?
The Kd was 900 nM.

And the koff (Spy F115L [1])?
The koff was 0.245 s⁻¹.

What about the Kd (Spy F115I [2]) of the same binder?
The Kd was 1170 nM.

What about the koff (Spy F115I [2]) of the same binder?
The koff was 0.328 s⁻¹.

What about the Kd (Spy Q100L [3]) of the same binder?
Its Kd is 230 nM.

And the koff (Spy Q100L [3])?
Its koff is 0.027 s⁻¹.

What about the Kd (Spy Q49L [4]) of the same binder?
Its Kd is 760 nM.

And the koff (Spy Q49L [4])?
The koff was 0.176 s⁻¹.

What about the Kd (Spy H96L [5]) of the same binder?
Its Kd is 1000 nM.

And the koff (Spy H96L [5])?
Its koff is 0.266 s⁻¹.

What about the Kd (Spy Q25R [6]) of the same binder?
The Kd was 870 nM.

And the koff (Spy Q25R [6])?
The koff was 0.198 s⁻¹.

And the Kd (Spy L32P [7])?
Its Kd is 200 nM.

What about the koff (Spy L32P [7]) of the same binder?
Its koff is 0.03 s⁻¹.

What about the Kd (Spy (wild type) [8]) of the same binder?
Its Kd is 1150 nM.

And the koff (Spy (wild type) [8])?
The koff was 0.456 s⁻¹.

B2: Im7 3-45 peptide (peptide)
chain: SLKNSISDYTEAEFVQLLKEIEKENVAATDDVLDVLLEHFVKIT
notes: N-terminal serine from the Sumo fusion construct; the footnote says it of Im7 purification in general; immunity protein 7 (Im7), residues 3-45; source: expressed in vivo, purified; not shown: SUMO, N-terminal, cleaved (from the N-terminal serine said of Im7 purification in general)
How did the Kd (Spy (wild type) [9]) turn out when B2 was run?
Its Kd is 2300 nM.

B3: Im7 7-45 peptide (peptide)
chain: SISDYTEAEFVQLLKEIEKENVAATDDVLDVLLEHFVKIT
notes: N-terminal serine introduced from the Sumo fusion construct; immunity protein 7 (Im7), residues 7-45; Called a 40-amino acid peptide: 39 residues of Im7 and the N-terminal serine; An equimolar mixture of unlabelled and 15N-labelled peptide was used for PICUP and EDC; also called Im7 L53A I54A 7-45 peptide; source: expressed in vivo as a Sumo fusion construct, purified; not shown: SUMO, …
Does B3 bind (Spy F115L [10])?
Result: binds

Does B3 bind (Spy F115I [11])?
Result: binds

Does B3 bind (Spy Q100L [12])?
Result: binds

Does B3 bind (Spy Q49L [13])?
Result: binds

Does B3 bind (Spy H96L [14])?
Result: binds

Does B3 bind (Spy Q25R [15])?
Result: binds

Does B3 bind (Spy L32P [16])?
Result: binds

And the Kd (Spy (wild type) [9])?
The Kd was 2600 nM.

B4: Im7 12-45 peptide (peptide)
chain: SEAEFVQLLKEIEKENVAATDDVLDVLLEHFVKIT
notes: N-terminal serine from the Sumo fusion construct; the footnote says it of Im7 purification in general; immunity protein 7 (Im7), residues 12-45; source: expressed in vivo, purified; not shown: SUMO, N-terminal, cleaved (from the N-terminal serine said of Im7 purification in general)
Which Kd (Spy (wild type) [9]) does the source give for B4 here?
The Kd was 8000 nM.

B5: Im7 L53A I54A (natural protein)
chain: SMELKNSISDYTEAEFVQLLKEIEKENVAATDDVLDVLLEHFVKITEHPDGTDAAYYPSDNRDDSPEGIVKEIKEWRAANGKPGFKQG
notes: N-terminal serine from the Sumo fusion construct; the footnote says it of Im7 purification in general; immunity protein 7 (Im7), colicin E7 immunity protein; also called full length Im7 L53A I54A; immunity protein 7 L53A I54A; source: purified from a Sumo fusion construct (Quan et al., 2011); not shown: SUMO, N-terminal, cleaved (from the N-terminal serine said of Im7 purification in general)
Which Kd (Spy (wild type) [9]) does the source give for B5 here?
The Kd was 2500 nM.

B6: Im7 L53A I54A tryptic fragment 5–43 (peptide, UniProt Q03708 5-43, looked up)
chain: NSISDYTEAEFVQLLKEIEKENVAATDDVLDVLLEHFVK
notes: immunity protein 7 (Im7), residues 5-43; most of the α1 and α2 helices; source: limited proteolysis of Im7 L53A I54A with trypsin
Does B6 bind [17]?
Result: binds

B7: Im7 L53A I54A tryptic fragment 5–70 (domain or fragment, UniProt Q03708 5-70, looked up)
chain: NSISDYTEAEFVQLLKEIEKENVAATDDVLDVLLEHFVKITEHPDGTDAAYYPSDNRDDSPEGIVK
notes: immunity protein 7 (Im7), residues 5-70; source: limited proteolysis of Im7 L53A I54A with trypsin
Does B7 bind [17]?
Result: binds

B8: Im7 L53A I54A tryptic fragment 5–73 (domain or fragment, UniProt Q03708 5-73, looked up)
chain: NSISDYTEAEFVQLLKEIEKENVAATDDVLDVLLEHFVKITEHPDGTDAAYYPSDNRDDSPEGIVKEIK
notes: immunity protein 7 (Im7), residues 5-73; source: limited proteolysis of Im7 L53A I54A with trypsin
Does B8 bind [17]?
Result: binds

B9: Im7 L53A I54A tryptic fragment 5–76 (domain or fragment, UniProt Q03708 5-76, looked up)
chain: NSISDYTEAEFVQLLKEIEKENVAATDDVLDVLLEHFVKITEHPDGTDAAYYPSDNRDDSPEGIVKEIKEWR
notes: immunity protein 7 (Im7), residues 5-76; source: limited proteolysis of Im7 L53A I54A with trypsin
Does B9 bind [17]?
Result: binds
